Columns and labels:
[1] = molecular target: T1, SARS-CoV-2 RBD protein (321–591) (SARS-CoV-2, Wuhan-Hu-1 (MN908947), UniProt P0DTC2); assay: SPR; conditions: both partners purified
[2] = molecular target: T1, SARS-CoV-2 RBD protein (321–591); assay: cell-based or functional assay

B1: S309H-XG81L (antibody, V domains shown)
VH: not shown
VL: DIQMTQSPSSLSASVGDRVTITCRASQSISSSLNWYQQKPGKAPKLLIYAASNLQSGVPSRFSGSGSGTDFTLTISSLQPEDFATYYCQQSFSTLFTFGPGTKVDLK
notes: also called rAb S309H-XG81L
[1]
  Kd: 21.1 nM
[2]
  IC50 of neutralisation of authentic SARS-CoV-2 on Vero E6 cells (CPE assay): 1.25 µg/mL
